{"source": "paper PMC8629787", "about": "(Cellular and Molecular Life Sciences: CMLS, 2021)", "target": "the molecule itself", "experiment": "SEC", "data": [{"protein": "BambL, fucose-binding lectin of Burkholderia ambifaria (recombinant, unlabelled) (natural protein) not shown", "values": [{"measurement": "stoichiometry N", "result": 3}]}]}
